Assay: clinical
Details: human, in vivo, total radioactivity
Description: Radiation dosimetry estimates for normal organs were determined for copper Cu-64 PSMA I&T based on biodistribution collected from the 12 patients enrolled in the trial. Whole-body PET/CT images acquired at 1 hour (±15 minutes), 4 hours (±30 minutes), and 24 hours (±2.0 hours) post injection were used together with blood samples collected prior to and 1, 2, 4, and 24 hours post injection and total voided urine samples collected for 0 to 1-hour and 1 to 4-hour intervals post injection.
Percent injected activity as a function of time was determined for the quantified organs listed below.
First, calculating Activity Quantification in PET Images utilizing the following Equation One: […]
Use of this equation can calculate organ/tissue and whole body activity concentration levels.
Second, Normalization of PET Quantification utilizing a normalization factor to decay values using urine activity utilizing the following Equation Two:
A normalization factor can be determined and applied to the decay corrected % IA values by assuming 100% quantification of the total body activity at the first time point and assuming accurate urine activity assay according to Equation Two.

[1] = Mean % Injected Dose, GI Total Contents
[2] = Mean % Injected Dose, Heart wall
[3] = Mean % Injected Dose, Lacrimal Glands
[4] = Mean % Injected Dose, Pituitary
[5] = Mean % Injected Dose, Red Marrow
[6] = Mean % Injected Dose, Salivary glands
[7] = Mean % Injected Dose, Stomach Wall
[8] = Mean % Injected Dose, Whole Body

**Q.** Which results are given for O=C(O)CC[C@H](NC(=O)N[C@@H](CCCCNC(=O)CCCCCCC(=O)NCCCC[C@@H](NC(=O)[C@@H](Cc1ccccc1)NC(=O)[C@@H](Cc1ccc(O)c(I)c1)NC(=O)CC[C@H](C(=O)O)N1CCN(CC(=O)O)CCN(CC(=O)O)CCN(CC(=O)O)CC1)C(=O)O)C(=O)O)C(=O)O [Cu-64 PSMA I&T, 64 Cu-(3S, 7S, 26R, 29R, 32R, 37R)-29-benzyl-32(4-hydroxy-3-iodobenzyl)-5, 13, 20, 28, 31, 34-hexaoxo-37-(4,7,10-tris(carboxymethyl)-1,4,7, 10-tetraazacyclododecan-1-yl)-4,6, 12, 21, 27, 30, 33-heptaazaheptatriacontane-1,3,7, 26, 37-pentacarboxylic acid, metal not drawn]?
**A.** tissue uptake dose at 1 h (Mean % Injected Dose, Blood): 5.8 %ID; tissue uptake dose at 2 h (Mean % Injected Dose, Blood): 4.2 %ID; tissue uptake dose at 4 h (Mean % Injected Dose, Blood): 3.2 %ID; tissue uptake dose at 24 h (Mean % Injected Dose, Blood): 4.4 %ID; tissue uptake dose at 1 h [1]: 10 %ID; tissue uptake dose at 4 h [1]: 10 %ID; tissue uptake dose at 24 h [1]: 12 %ID; tissue uptake dose at 1 h [2]: 1.2 %ID; tissue uptake dose at 4 h [2]: 0.84 %ID; tissue uptake dose at 24 h [2]: 0.96 %ID; tissue uptake dose at 1 h (Mean % Injected Dose, Kidneys): 8.6 %ID; tissue uptake dose at 4 h (Mean % Injected Dose, Kidneys): 5 %ID; tissue uptake dose at 24 h (Mean % Injected Dose, Kidneys): 2.1 %ID; tissue uptake dose at 1 h [3]: 0.023 %ID; tissue uptake dose at 4 h [3]: 0.024 %ID; tissue uptake dose at 24 h [3]: 0.015 %ID; tissue uptake dose at 1 h (Mean % Injected Dose, Liver): 19 %ID; tissue uptake dose at 4 h (Mean % Injected Dose, Liver): 25 %ID; tissue uptake dose at 24 h (Mean % Injected Dose, Liver): 30 %ID; tissue uptake dose at 1 h (Mean % Injected Dose, Pancreas): 0.35 %ID; tissue uptake dose at 4 h (Mean % Injected Dose, Pancreas): 0.39 %ID; tissue uptake dose at 24 h (Mean % Injected Dose, Pancreas): 0.28 %ID; tissue uptake dose at 1 h [4]: 0.0021 %ID; tissue uptake dose at 4 h [4]: 0.0019 %ID; tissue uptake dose at 24 h [4]: 0.0017 %ID; tissue uptake dose at 1 h (Mean % Injected Dose, Prostate): 0.036 %ID; tissue uptake dose at 4 h (Mean % Injected Dose, Prostate): 0.031 %ID; tissue uptake dose at 24 h (Mean % Injected Dose, Prostate): 0.021 %ID; tissue uptake dose at 1 h [5]: 1.7 %ID; tissue uptake dose at 4 h [5]: 1.4 %ID; tissue uptake dose at 24 h [5]: 1.5 %ID; tissue uptake dose at 24 h (Mean % Injected Dose, Remainder): 52 %ID; tissue uptake dose at 1 h [6]: 1.1 %ID; tissue uptake dose at 4 h [6]: 0.95 %ID; tissue uptake dose at 24 h [6]: 0.4 %ID; tissue uptake dose at 1 h (Mean % Injected Dose, Spleen): 1.5 %ID; tissue uptake dose at 4 h (Mean % Injected Dose, Spleen): 0.54 %ID; tissue uptake dose at 24 h (Mean % Injected Dose, Spleen): 0.29 %ID; tissue uptake dose at 1 h [7]: 0.52 %ID; tissue uptake dose at 4 h [7]: 0.51 %ID; tissue uptake dose at 24 h [7]: 0.42 %ID; tissue uptake dose at 1 h (Mean % Injected Dose, Testes): 0.11 %ID; tissue uptake dose at 4 h (Mean % Injected Dose, Testes): 0.1 %ID; tissue uptake dose at 24 h (Mean % Injected Dose, Testes): 0.065 %ID; tissue uptake dose at 1 h (Mean % Injected Dose, Thyroid): 0.031 %ID; tissue uptake dose at 4 h (Mean % Injected Dose, Thyroid): 0.019 %ID; tissue uptake dose at 24 h (Mean % Injected Dose, Thyroid): 0.016 %ID; tissue uptake dose at 1 h [8]: 96 %ID; tissue uptake dose at 4 h [8]: 87 %ID; tissue uptake dose at 24 h [8]: 81 %ID; total activity recovery (whole-body PET plus urine), % of injected activity at 1 hour (sum of unnormalized activity recovery from whole body PET quantification and urinary excretion, % of the injected activity): 101%
